In patent US20260159579A1 (Pfizer, published 2026):
Several values for one entry are separate records, joined by “and”; a condition that tells them apart may be missing. Equal entries are not always repeated. Where two headings read alike, the source gives them in different places.

How the values were obtained:
[1] = target: Mouse Fc-mouse GDF15 (Mu IgG1Fc_Fxa_Mu GDF15) (mouse); test: SPR BIAcore T200, 37C; Fc-GDF15 captured, IgG as analyte
[2] = target: T1, Mouse Fc-human GDF15 (Mu IgG1Fc_Fxa_Hu GDF15) (human); test: as above
T1 construct: Whole entry is the fusion: mouse IgG1 Fc, FXa site and linker, mature human GDF15; described as dimeric; also called Murine dimeric IgG1 Fc-human GDF-15 with FXa cleavage site; control human GDF15
T1 chain: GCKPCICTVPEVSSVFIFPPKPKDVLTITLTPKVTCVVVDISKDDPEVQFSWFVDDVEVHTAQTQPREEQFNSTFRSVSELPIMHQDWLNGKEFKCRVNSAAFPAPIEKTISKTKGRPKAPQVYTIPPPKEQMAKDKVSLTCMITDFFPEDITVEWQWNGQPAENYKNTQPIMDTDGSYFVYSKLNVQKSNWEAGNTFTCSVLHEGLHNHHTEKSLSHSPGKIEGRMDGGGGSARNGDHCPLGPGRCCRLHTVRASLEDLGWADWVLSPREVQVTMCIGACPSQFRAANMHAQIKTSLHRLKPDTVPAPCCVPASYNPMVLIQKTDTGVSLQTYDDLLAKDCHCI
Protocol: (§1) Mouse Fc-human GDF15 (Mu IgG1Fc_Fxa_Hu GDF15; SEQ ID NO:2), Mouse Fc-mouse GDF15 (Mu IgG1Fc_Fxa_Mu GDF15; SEQ ID NO:5) and Mouse Fc-cynomolgus monkey GDF15 (Mu IgG1Fc_Fxa_Cyno GDF15; SEQ ID NO:4) were captured onto three different flow cells of a CM4 sensorchip (catalogue number BR100534, GE Healthcare) surface using the Mouse Antibody Capture Kit (BR100838, GE Healthcare) according to the manufacturer's protocol. The running and sample bufferwas 10 mM HEPES pH 7.4, 0.15M NaCl, 3 mM EDTA, 0.05% P-20 (HBS-EP+). The final capture levels of Mu IgG1Fc_Fxa_Hu GDF15, Mu IgG1Fc_Fxa_Mu GDF15 and Mu IgG1Fc_Fxa_Cyno GDF15 were 40 resonance units (RU), 32 RU and 25 RU respectively. Flow cell 1 was used as a reference flow cell. […] The dissociation was monitored for 2.8 hours and the surface was regenerated with 10 mM Glycine pH 1.7. Binding affinities and rate constants were determined for murine and cynomolgus monkey GDF15 by fitting the resulting sensorgram data to a 1:1 Langmuir model in BIAcore T200 Evaluation software version 2.0 (GE Healthcare).
(§2) Additionally, the binding of clone GDF15_001 to cynomolgus monkey and mouse GDF15 was measured using above mentioned BIAcore assay (Table 7).

[3] = target: T1, Mouse Fc-human GDF15 (Mu IgG1Fc_Fxa_Hu …); test: as above
Protocol: as §1, §2

[4] = target: T2, Mouse Fc-cynomolgus monkey GDF15 (Mu IgG1Fc_Fxa_Cyno GDF15) (cynomolgus monkey); test: as above
T2 construct: Whole entry is the fusion: mouse IgG1 Fc, FXa site and linker, cynomolgus GDF15; described as dimeric; also called Murine dimeric IgG1 Fc-cyno GDF-15 with FXa cleavage site
T2 chain: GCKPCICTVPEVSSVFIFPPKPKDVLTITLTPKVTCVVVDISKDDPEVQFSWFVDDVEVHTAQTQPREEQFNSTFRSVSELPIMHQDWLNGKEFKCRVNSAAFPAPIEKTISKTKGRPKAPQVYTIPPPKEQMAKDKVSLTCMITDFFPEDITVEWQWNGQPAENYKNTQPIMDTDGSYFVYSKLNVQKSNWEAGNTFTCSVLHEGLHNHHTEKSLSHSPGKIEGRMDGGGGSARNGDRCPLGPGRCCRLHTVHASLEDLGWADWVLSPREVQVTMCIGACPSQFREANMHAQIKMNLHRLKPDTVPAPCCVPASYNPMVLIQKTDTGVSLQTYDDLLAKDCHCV
Protocol: as §1, §2

[5] = target: Mouse Fc-mouse GDF15 (Mu IgG1Fc_Fxa_Mu GDF15) (mouse); test: SPR BIAcore T200, 37C; Fc-GDF15 captured, IgG as analyte; average of runs
[6] = target: T1, Mouse Fc-human GDF15 (Mu IgG1Fc_Fxa_Hu …); test: SPR BIAcore T200, 37C; Fc-GDF15 captured, IgG as analyte; apparent KD
[7] = target: T1, Mouse Fc-human GDF15 (Mu IgG1Fc_Fxa_Hu …); test: SPR BIAcore T200, 37C; Fc-GDF15 captured, IgG as analyte; average of runs
Protocol: as §1, §2

[8] = target: T1, Mouse Fc-human GDF15 (Mu IgG1Fc_Fxa_Hu …); test: as above
Protocol: as §1, §2

[9] = target: T2, Mouse Fc-cynomolgus monkey GDF15 (Mu …); test: as above
Protocol: as §1, §2

[10] = target: T1, Mouse Fc-human GDF15 (Mu IgG1Fc_Fxa_Hu …); test: SPR BIAcore T200, 37C; Fc-GDF15 captured, IgG as analyte; average of runs; apparent KD

Kd [1]: 0.114 nM and 0.175 nM and 0.138 nM
T½ min [1]: 0.66 h and 0.447 h and 0.555 h
koff [1]: 0.000292 s⁻¹ and 0.000431 s⁻¹ and 0.000347 s⁻¹
kon [1]: 2.6e+06 M⁻¹ s⁻¹ and 2.5e+06 M⁻¹ s⁻¹ (2×)
Kd [2]: < 0.01 nM
T½ min [2]: 40.3 h and 20.9 h and 30.8 h
koff [2]: 4.78e-06 s⁻¹ and 9.22e-06 s⁻¹ and 6.25e-06 s⁻¹
kon [2]: 1.69e+06 M⁻¹ s⁻¹ and 2.18e+06 M⁻¹ s⁻¹ and 2.03e+06 M⁻¹ s⁻¹
T½ min [3]: 20.9 h and 30.8 h and 40.3 h
koff [3]: 9.22e-06 s⁻¹ and 6.25e-06 s⁻¹ and 4.78e-06 s⁻¹
kon [3]: 1.69e+06 M⁻¹ s⁻¹ and 2.03e+06 M⁻¹ s⁻¹ and 2.18e+06 M⁻¹ s⁻¹
Kd [4]: 0.00886 nM and 0.00671 nM and 0.00926 nM
T½ min [4]: 14.8 h and 15.5 h and 18.7 h
koff [4]: 1.3e-05 s⁻¹ and 1.24e-05 s⁻¹ and 1.03e-05 s⁻¹
kon [4]: 1.47e+06 M⁻¹ s⁻¹ and 1.85e+06 M⁻¹ s⁻¹ and 1.12e+06 M⁻¹ s⁻¹
Kd [5]: 0.142 nM
koff [5]: 0.000356 s⁻¹
kon [5]: 2.51e+06 M⁻¹ s⁻¹
Kd [6]: < 0.01 nM
Kd [7]: < 0.01 nM
koff [7]: 6.75e-06 s⁻¹
kon [7]: 1.97e+06 M⁻¹ s⁻¹
koff [8]: 6.75e-06 s⁻¹
kon [8]: 1.97e+06 M⁻¹ s⁻¹
Kd [9]: 0.00828 nM
koff [9]: 1.19e-05 s⁻¹
kon [9]: 1.48e+06 M⁻¹ s⁻¹
Kd [10]: < 0.01 nM
B1: GDF15_001 (antibody, human IgG1, kappa, V domains shown)
VH: QVQLVQSGAEVKKPGSSVKVSCKASGYTFSSYNIDWVRQAPGQGLEWMGGINPIFGTAFYNQKFQGRVTITADESTSTAYMELSSLRSEDTAVYYCAREAITTVGAMDHWGQGTLVTVSS
VL: EIVLTQSPATLSLSPGERATLSCRTSQSVHNYLAWYQQKPGQAPRLLIYDASTRADGIPARFSGSGSGTDFTLTISSLEPEDFAVYYCQQFWSWPWTFGQGTKVEIKR
notes: Tested in bivalent format; IgG1 heavy chain, kappa light chain; also called ponsegromab; PF-06946860
